Measured values reported in PMC6959358.

How the values were obtained:
Assay in all cases: co-immunoprecipitation (DYK-antibody beads) with immunoblot quantification
troponin I = troponin I (UniProt P19429); conditions: TnT-DYK expressed in HEK cells, immobilized on DYK-antibody beads, incubated with healthy control iPSC-CM lysate; n = 5; DYK negative control subtracted …; parent: est. 1.0; read off a plot
PKA = conditions: TnT-DYK expressed in HEK cells, immobilized on DYK-antibody beads, incubated with healthy control iPSC-CM lysate; n = 4; DYK negative control subtracted …; parent: est. 1.0; read off a plot
troponin C = troponin C (UniProt P63316); conditions: TnT-DYK expressed in HEK cells, immobilized on DYK-antibody beads, incubated with healthy control iPSC-CM lysate; n = 6; DYK negative control subtracted …; parent: est. 1.0; read off a plot
tropomyosin = tropomyosin (UniProt P09493); conditions: TnT-DYK expressed in HEK cells, immobilized on DYK-antibody beads, incubated with healthy control iPSC-CM lysate; n = 5; DYK negative control subtracted …; parent: est. 1.0; read off a plot
UniProt P09493, sequence (P09493 whole entry): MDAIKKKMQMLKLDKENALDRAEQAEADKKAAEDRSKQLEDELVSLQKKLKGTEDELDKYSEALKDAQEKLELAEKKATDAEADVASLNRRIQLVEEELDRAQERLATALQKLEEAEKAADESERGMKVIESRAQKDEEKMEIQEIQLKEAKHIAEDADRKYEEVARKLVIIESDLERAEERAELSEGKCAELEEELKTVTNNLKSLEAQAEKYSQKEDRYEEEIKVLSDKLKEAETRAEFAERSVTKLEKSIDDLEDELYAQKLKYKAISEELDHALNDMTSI

UniProt P19429, sequence (P19429 whole entry): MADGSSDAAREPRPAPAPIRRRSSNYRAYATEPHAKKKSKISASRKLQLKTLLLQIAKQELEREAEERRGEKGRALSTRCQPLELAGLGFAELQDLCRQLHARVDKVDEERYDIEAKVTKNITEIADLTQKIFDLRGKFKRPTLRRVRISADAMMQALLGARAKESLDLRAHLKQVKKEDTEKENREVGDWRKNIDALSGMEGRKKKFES

Substance “TnT-WT-DYK (human cardiac troponin T, wild type, flag (DYK)-tagged) R173W” has a ratio to parent (troponin I) of 0.73, a ratio to parent (PKA) of 0.42 and a ratio to parent (troponin C) of 0.78. For the same substance, the ratio to parent (tropomyosin) was 0.57.
